Residue numbers refer to the chain shown, from its start. Names and notes keep the numbering of the source.
Key:
Format in all cases: biochemical, human
[1] = substrate: NC(=O)c1ccc[n+]([C@@H]2O[C@H](COP(=O)([O-])OP(=O)(O)OC[C@H]3O[C@@H](n4cnc5c(N)ncnc54)[C@H](O)[C@@H]3O)[C@@H](O)[C@H]2O)c1; experiment: SIRT5 wild type desuccinylation reaction, trypsin coupled fluorescence assay with Ac-SucLys-AMC; settings: other: desuccinylation, succinyl substrate, 25°C, pH 8.0
Experimental: (§1) The steady state rates of the enzyme catalyzed reactions were derived from the time dependent changes in the fluorescence signal, and the data were analyzed by the ternary complex kinetic mechanism (Eq 4) via Grafit 4 software.
(§2) The steady-state kinetic data were fitted globally by the competitive, mixed, and noncompetitive inhibition models using the DYNAFIT software based on the rapid-equilibrium approximation [43]. All the parameters were allowed to float except for the enzyme concentration. The software utilizes several model-discrimination criteria, including the second order Akaike Information Criterion (AIC) [44, 45], so that the best model out of the three different candidates could be identified.

[2] = substrate: NC(=O)c1ccc[n+]([C@@H]2O[C@H](COP(=O)([O-])OP(=O)(O)OC[C@H]3O[C@@H](n4cnc5c(N)ncnc54)[C@H](O)[C@@H]3O)[C@@H](O)[C@H]2O)c1; experiment: SIRT5 R105I deacetylation reaction, trypsin coupled assay with Fluor-de-lys; settings: other: deacetylation, acetyl substrate; pH 8.0; 25.0 °C
Experimental: as §1, §2

[3] = substrate: NC(=O)c1ccc[n+]([C@@H]2O[C@H](COP(=O)([O-])OP(=O)(O)OC[C@H]3O[C@@H](n4cnc5c(N)ncnc54)[C@H](O)[C@@H]3O)[C@@H](O)[C@H]2O)c1; experiment: SIRT5 Y102A deacetylation reaction, trypsin coupled assay with Fluor-de-lys; settings: other: deacetylation, acetyl substrate; pH 8.0; 25.0 °C
Experimental: as §1, §2

[4] = substrate: NC(=O)c1ccc[n+]([C@@H]2O[C@H](COP(=O)([O-])OP(=O)(O)OC[C@H]3O[C@@H](n4cnc5c(N)ncnc54)[C@H](O)[C@@H]3O)[C@@H](O)[C@H]2O)c1; experiment: SIRT5 Y102A desuccinylation reaction, trypsin coupled assay with Ac-SucLys-AMC; settings: other: desuccinylation, succinyl substrate; pH 8.0; 25.0 °C
Experimental: as §1, §2

[5] = substrate: NC(=O)c1ccc[n+]([C@@H]2O[C@H](COP(=O)([O-])OP(=O)(O)OC[C@H]3O[C@@H](n4cnc5c(N)ncnc54)[C@H](O)[C@@H]3O)[C@@H](O)[C@H]2O)c1; experiment: SIRT5 Y102A/R105I deacetylation reaction, trypsin coupled assay with Fluor-de-lys; settings: other: deacetylation, acetyl substrate; pH 8.0; 25.0 °C
Experimental: The sirtuin catalyzed deacetylase and desuccinylase reactions were measured via the trypsin coupled assay system as described by Madsen et al [39]. […] Since trypsin was used as a coupling enzyme, its concentration was optimized to ensure the emergence of minimal or negligible lag-phase prior to the onset of the steady state phase [42]. […] The steady state rates of the enzyme catalyzed reactions were derived from the time dependent changes in the fluorescence signal, and the data were analyzed by the ternary complex kinetic mechanism (Eq 4) via Grafit 4 software.
as §2
Other reaction conditions were the same as described above. The data were fitted by Eq 5 by Grafit 4.0.

[6] = substrate: NC(=O)c1ccc[n+]([C@@H]2O[C@H](COP(=O)([O-])OP(=O)(O)OC[C@H]3O[C@@H](n4cnc5c(N)ncnc54)[C@H](O)[C@@H]3O)[C@@H](O)[C@H]2O)c1; experiment: SIRT1 deacetylation reaction, trypsin coupled assay with Fluor-de-lys; settings: other: deacetylation, acetyl substrate; pH 8.0; 25.0 °C
Experimental: as §1, §2

B1: SIRT5 wild type (Homo sapiens) (protein)
chain: KHIVIISGAGVSAESGVPTFRGAGGYWRKWQAQDLATPLAFAHNPSRVWEFYHYRREVMGSKEPNAGHRAIAECETRLGKQGRRVVVITQNIDELHRKAGTKNLLEIHGSLFKTRCTSCGVVAENYKSPICPALSGKGAPEPGTQDASIPVEKLPRCEEAGCGGLLRPHVVWFGENLDPAILEEVDRELAHCDLCLVVGTSSVVYPAAMFAPQVAARGVPVAEFNTETTPATNRFRFHFQGPCGTTLPEAL
notes: SIRT1 (193–747) and SIRT5 (51–301) were cloned into the pLIC-His expression vector; His tag (pLIC-His vector); made in house; host or cells: E. coli BL21(DE3) Star
Km [1]: 69 ± 9 µM

B2: SIRT5 R105I (Homo sapiens; R105I) (protein)
chain: B1 chain with R55I
notes: as for B1
Km [2]: 609 ± 120 µM

B3: SIRT5 Y102A (Homo sapiens; Y102A) (protein)
chain: B1 chain with Y52A
notes: as for B1
Km [3]: 1605 ± 321 µM
Km [4]: 321 ± 49 µM

B4: SIRT5 Y102A/R105I (Homo sapiens; R105I/Y102A) (protein)
chain: B1 chain with Y52A, R55I
notes: as for B1
Km [5]: 1194 ± 667 µM

B5: SIRT1 (Homo sapiens) (protein)
chain: MIGTDPRTILKDLLPETIPPPELDDMTLWQIVINILSEPPKRKKRKDINTIEDAVKLLQECKKIIVLTGAGVSVSCGIPDFRSRDGIYARLAVDFPDLPDPQAMFDIEYFRKDPRPFFKFAKEIYPGQFQPSLCHKFIALSDKEGKLLRNYTQNIDTLEQVAGIQRIIQCHGSFATASCLICKYKVDCEAVRGDIFNQVVPRCPRCPADEPLAIMKPEIVFFGENLPEQFHRAMKYDKDEVDLLIVIGSSLKVRPVALIPSSIPHEVPQILINREPLPHLHFDVELLGDCDVIINELCHRLGGEYAKLCCNPVKLSEITEKPPRTQKELAYLSELPPTPLHVSEDSSSPERTSPPDSSVIVTLLDQAAKSNDDLDVSESKGCMEEKPQEVQTSRNVESIAEQMENPDLKNVGSSTGEKNERTSVAGTVRKCWPNRVAKEQISRRLDGNQYLFLPPNRYIFHGAEVYSDSEDDVLSSSSCGSNSDSGTCQSPSLEEPMEDESEIEEFYNGLEDEPDVPERAGGAGFGTDGDDQEAINEAISVKQEVTDMNYPSNKS
notes: as for B1
Km [6]: 388 ± 73 µM
kcat [6]: 0.000579 ± 9.1e-05 s⁻¹
kcat/Km [6]: 1.63 M⁻¹ s⁻¹

Source: PMC4811591, “Role of the Substrate Specificity-Defining Residues of Human SIRT5 in Modulating the Structural Stability and Inhibitory Features of the Enzyme” (PLoS ONE, 2016)
